Laboratory results: article PMC11452484 (Nature Communications, 2024)

B1: G. sulfurreducens SPARSA complex (short pAgo/Sir2-APAZ heterodimer) (complex)
chain 1: not shown
chain 2: MDVLTDNEFYQHYLQNSQHMMWFLGAGTSRSAGLPTASDIIWDLKHRYYCLHENQDYQKHDINNHAIKSKIQSYMDSKGFPLQWSPEEYSFYFELVFRDDYEAQRKYLLEALASRKVSLNIGHRVLAALLEMNQTKVVFTTNFDDVIETAFSDISGKHLSVYHLEGSYAALSALNTEAFPIYAKIHGDFRYQKIKNLTPDLQTNDREIHKCFLAAAIRFGLVVSGYSGRDENVMTMLRAAIDQNNAFPHGLYWTVPSISKSEPAVQDLITYAQGKGVRAYLVETGTFDEMLSKIWRQVKDKPAAIDAKVRTARVCPVSIPLPGPGKSFPALRTNALPVVTQSIRCGVVTLASPITFSELKERISQKSPKALLTYTEKVLFLGGEPEIRKIFSNDEINSIGQYYIDEIAQSVAASTFLKSFVEEAILTALLREKPILHRVRHRTHYAVIPNASAKDDRFLDLRKAVGFKGDLGYITGNVTNAKELSWAEAVSIRLEERGGKLWIMLKPEIWIKPLDRREEATDFIRSRRRYRFNQCSYQILDAWIKILFGSIGGGGTVNISCFPDAEFKAEFEIGTRTAFSLGVGYGR
B2: Geobacter sulfurreducens Sir2-APAZ (natural protein, UniProt Q74DF6 1-587, looked up)
chain: MDVLTDNEFYQHYLQNSQHMMWFLGAGTSRSAGLPTASDIIWDLKHRYYCLHENQDYQKHDINNHAIKSKIQSYMDSKGFPLQWSPEEYSFYFELVFRDDYEAQRKYLLEALASRKVSLNIGHRVLAALLEMNQTKVVFTTNFDDVIETAFSDISGKHLSVYHLEGSYAALSALNTEAFPIYAKIHGDFRYQKIKNLTPDLQTNDREIHKCFLAAAIRFGLVVSGYSGRDENVMTMLRAAIDQNNAFPHGLYWTVPSISKSEPAVQDLITYAQGKGVRAYLVETGTFDEMLSKIWRQVKDKPAAIDAKVRTARVCPVSIPLPGPGKSFPALRTNALPVVTQSIRCGVVTLASPITFSELKERISQKSPKALLTYTEKVLFLGGEPEIRKIFSNDEINSIGQYYIDEIAQSVAASTFLKSFVEEAILTALLREKPILHRVRHRTHYAVIPNASAKDDRFLDLRKAVGFKGDLGYITGNVTNAKELSWAEAVSIRLEERGGKLWIMLKPEIWIKPLDRREEATDFIRSRRRYRFNQCSYQILDAWIKILFGSIGGGGTVNISCFPDAEFKAEFEIGTRTAFSLGVGYGR

Molecular target: the molecule itself
Assay: cryo-EM structure

Protein	stoichiometry N	binding result
B1	4	–
B2	–	binds
